Source: publication PMC12509998

Experiments:
[1] = target: eukaryotic elongation factor 2 kinase (UniProt O00418)
[2] = target: eukaryotic elongation factor 2 kinase (UniProt O00418); remark: listed apart in the source

eukaryotic elongation factor 2 kinase, sequence (O00418 whole entry): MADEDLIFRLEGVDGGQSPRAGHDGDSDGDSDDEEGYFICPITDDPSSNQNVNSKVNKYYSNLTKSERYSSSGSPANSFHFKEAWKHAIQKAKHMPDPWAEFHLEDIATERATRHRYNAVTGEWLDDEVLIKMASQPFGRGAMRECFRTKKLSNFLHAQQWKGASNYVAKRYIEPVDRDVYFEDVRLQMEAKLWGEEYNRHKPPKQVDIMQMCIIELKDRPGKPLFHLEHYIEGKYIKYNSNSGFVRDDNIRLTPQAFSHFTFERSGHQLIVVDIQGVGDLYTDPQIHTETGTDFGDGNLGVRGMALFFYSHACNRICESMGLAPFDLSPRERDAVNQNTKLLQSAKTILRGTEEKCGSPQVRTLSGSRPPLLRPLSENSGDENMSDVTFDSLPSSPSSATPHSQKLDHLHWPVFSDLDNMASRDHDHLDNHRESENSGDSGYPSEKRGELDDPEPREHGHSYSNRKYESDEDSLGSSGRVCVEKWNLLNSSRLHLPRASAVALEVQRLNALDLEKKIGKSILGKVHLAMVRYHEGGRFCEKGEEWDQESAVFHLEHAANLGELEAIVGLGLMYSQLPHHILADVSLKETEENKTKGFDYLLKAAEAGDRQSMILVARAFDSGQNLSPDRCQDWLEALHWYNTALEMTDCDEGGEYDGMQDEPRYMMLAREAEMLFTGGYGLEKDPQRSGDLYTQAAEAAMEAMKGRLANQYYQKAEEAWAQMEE

Work on “calmodulin, full-length (from UniProt P0DP23 1-149) (natural protein)” yielded a KCaM (concentration of CaM at half-maximal activity) of T348-phosphorylated eEF-2K toward 150 μM peptide substrate, 50 μM free Ca2+ [1] of 67 nM and a KCaM^app of eEF-2K (0.5 nM) activity toward 5 μM yeast eEF-2, 50 μM free Ca2+ [2] of 121 nM.
For “isolated C-terminal lobe of calmodulin (residues 76-148) (from UniProt P0DP23 77-149) (domain or fragment)”, the KCaM (concentration of CaMC at half-maximal activity) of T348-phosphorylated eEF-2K toward 150 μM peptide substrate, 50 μM free Ca2+ [1] was 85 nM and the KCaM^app of eEF-2K (0.5 nM) activity toward 5 μM yeast eEF-2, 50 μM free Ca2+ [2] was 156 nM.
